# Literature values, collected in patent US20200181212A1 (priority 2014, published 2020).
# System: trypsin
# Settings: cited from earlier work
substance,measurement,value
asparaginase [native asparaginase],residual activity,5%
